± gives the uncertainty stated by the source.
Experiment: self-splicing fitness, log relative to wild type (ln ratio); higher = more splicing; Tetrahymena group I intron in knt gene, E. coli kanamycin selection, DiMSum; sequences stand for … in CUCUCU…GGAGGGAAAAGUUAUCAGGCAUGCACCUGGUAGCUAGUCUUUAAACCAAUAGAUUGCAUCGGUUUAAAAGGCAAGACCGUCAAAUUGCGGGAAAGGGGUCAACAGCCGUUCAGUACCAAGUCUCAGGGGAAACUUUGAGAUGGCCUUGCAAAGGGUAUGGUAAUAAGCUGACGGACAUGGUCCUAACCACGCAGCCAAGUCCUAAGUCAACAGAUCUUCUGUUGAUAUGGAUGCAGUUCACAGACUAAAUGUCGGUCGGGGAAGAUGUAUUCUUCUCAUAAGAUAUAGUCGGACCUCUCCUUAAUGGGAGCUAGCGGAUGAAGUGAUGCAACACUGGAGCCGCUGGGAACUAAUUUGUAUGCGAAAGUAUAUUGAUUAGUUUUGGAGUACUCGUGGUCG
Procedure, shortened: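 Colonies from six replicate transformations of E. coli BL21(DE3) were pooled and amplicon-sequenced on an Illumina HiSeq 2500. The library placed an intron with all eight P1ex-region nucleotides randomised inside the knt kanamycin-resistance gene on pET-22b(+), and cells grew overnight at 37°C or 30°C on LB agar with or without 25 μg/mL kanamycin (plus 100 μg/mL carbenicillin, 50 μM IPTG, 0.2% rhamnose). Fitness is the DiMSum error-weighted combination of wild-type-normalised replicate fold changes, kanamycin versus none.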

Sequence | self-splicing fitness (ln) (30 °C) | self-splicing fitness (ln) (37 °C)
CAUUAGCAAUAUUACGCGUG | -3.16 ± 0.15 | -2.89 ± 0.24
CAUUAGCAAUAUUACGCUCU | -2.64 ± 0.2 | -1.43 ± 0.22
CAUUAGCAAUAUUACGGAGG | -0.36 ± 0.11 | -0.878 ± 0.16
CAUUAGCAAUAUUACGGCUC | -3.78 ± 0.28 | -1.39 ± 0.18
CAUUAGCAAUAUUACGGUAC | -1.9 ± 0.16 | -2.07 ± 0.46
CAUUAGCAAUAUUACGGUUG | -1.63 ± 0.09 | -0.664 ± 0.11
CAUUAGCAAUAUUACGUAUC | -3.14 ± 0.31 | -2.26 ± 0.28
CAUUAGCAAUAUUACGUCAU | -4.39 ± 0.3 | -2.48 ± 0.21
CAUUAGCAAUAUUACGUCGA | -2.75 ± 0.14 | -2.05 ± 0.12
CAUUAGCAAUAUUACGUGCU | -4.27 ± 0.24 | -2.36 ± 0.27
CCAAAGCAAUAUUACGAAGU | -3.04 ± 0.15 | -2.42 ± 0.2
CCAAAGCAAUAUUACGAAUA | -3.55 ± 0.32 | -1.51 ± 0.18
CCAAAGCAAUAUUACGACAU | -3.658 ± 0.02 | -2.82 ± 0.037
CCAAAGCAAUAUUACGACGC | -3.71 ± 0.35 | –
CCAAAGCAAUAUUACGAGGG | -3.76 ± 0.22 | -1.56 ± 0.16
CCAAAGCAAUAUUACGAGGU | -4.24 ± 0.2 | -1.71 ± 0.13
CCAAAGCAAUAUUACGAUAA | -3 ± 0.17 | -0.828 ± 0.18
CCAAAGCAAUAUUACGAUAG | -0.734 ± 0.086 | 0.171 ± 0.11
CCAAAGCAAUAUUACGCAAA | -3.41 ± 0.25 | -1.72 ± 0.17
CCAAAGCAAUAUUACGCACA | -3.55 ± 0.34 | -1.66 ± 0.32

Sequence | self-splicing fitness (ln) (30 °C) | self-splicing fitness (ln) (37 °C)
CCAAAGCAAUAUUACGCCAA | -2.73 ± 0.2 | -1.96 ± 0.23
CCAAAGCAAUAUUACGCCGG | -5.01 ± 0.41 | -2.38 ± 0.2
CCAAAGCAAUAUUACGCGCC | -3.43 ± 0.21 | -2.71 ± 0.27
CCAAAGCAAUAUUACGCGGG | -4.4 ± 0.42 | -1.38 ± 0.16
CCAAAGCAAUAUUACGCUUU | -3.57 ± 0.16 | -2.73 ± 0.21
CCAAAGCAAUAUUACGGACC | – | -1.51 ± 0.29
CCAAAGCAAUAUUACGGACU | -2.27 ± 0.13 | -2.84 ± 0.22
CCAAAGCAAUAUUACGGAGA | -4.23 ± 0.42 | -1.92 ± 0.23
CCAAAGCAAUAUUACGGAUC | -3.45 ± 0.23 | -2.47 ± 0.39
CCAAAGCAAUAUUACGGCAA | -3.15 ± 0.27 | -2.73 ± 0.25
CCAAAGCAAUAUUACGGCCU | -3.59 ± 0.18 | -3.33 ± 0.37
CCAAAGCAAUAUUACGGCGA | -3.26 ± 0.21 | -3.01 ± 0.19
CCAAAGCAAUAUUACGGGCC | -2.51 ± 0.46 | -2.23 ± 0.42
CCAAAGCAAUAUUACGGGCU | -2.45 ± 0.13 | -3.3 ± 0.23
CCAAAGCAAUAUUACGGUAA | -3.35 ± 0.29 | -2.91 ± 0.23
CCAAAGCAAUAUUACGGUCA | -3.54 ± 0.35 | -1.78 ± 0.25
CCAAAGCAAUAUUACGUCGA | -3.66 ± 0.15 | -2.92 ± 0.18
CCAAAGCAAUAUUACGUGGC | -1.62 ± 0.098 | -2.29 ± 0.21
CCAAAGCAAUAUUACGUUCC | -3.37 ± 0.24 | -2.93 ± 0.32
CCACAGCAAUAUUACGAACC | -3.86 ± 0.32 | -2.46 ± 0.35

Sequence | self-splicing fitness (ln) (30 °C) | self-splicing fitness (ln) (37 °C)
CCACAGCAAUAUUACGACAU | -3.702 ± 0.019 | -2.84 ± 0.037
CCACAGCAAUAUUACGACCA | -3.99 ± 0.36 | -1.28 ± 0.2
CCACAGCAAUAUUACGACCU | -3.94 ± 0.3 | -2.82 ± 0.18
CCACAGCAAUAUUACGACGU | -3.18 ± 0.18 | -2.52 ± 0.15
CCACAGCAAUAUUACGAGCC | -3.22 ± 0.42 | -2.3 ± 0.31
CCACAGCAAUAUUACGAGGC | -3.21 ± 0.14 | -2.37 ± 0.21
CCACAGCAAUAUUACGAGUA | -3.68 ± 0.2 | -2.31 ± 0.19
CCACAGCAAUAUUACGCCCA | -2.81 ± 0.14 | -2.36 ± 0.16
CCACAGCAAUAUUACGCGCG | -1.02 ± 0.042 | -0.161 ± 0.056
CCACAGCAAUAUUACGCUGU | -4.34 ± 0.18 | -3.31 ± 0.27
CCACAGCAAUAUUACGGAAU | -3.23 ± 0.17 | -2.21 ± 0.18
CCACAGCAAUAUUACGGACC | -4.45 ± 0.31 | -1.54 ± 0.22
CCACAGCAAUAUUACGGAGC | -3.58 ± 0.14 | -2.99 ± 0.19
CCACAGCAAUAUUACGGGCA | -3.53 ± 0.15 | -2.92 ± 0.15
CCACAGCAAUAUUACGGGCG | -0.605 ± 0.065 | 0.193 ± 0.087
CCACAGCAAUAUUACGGUUA | -3.14 ± 0.15 | -2.7 ± 0.16
CCACAGCAAUAUUACGUAGU | -3.22 ± 0.14 | -2.94 ± 0.19
CCACAGCAAUAUUACGUCAG | -0.817 ± 0.057 | -0.131 ± 0.071
CCAGAGCAAUAUUACGAAAA | -2.94 ± 0.32 | -1.54 ± 0.35
CCAGAGCAAUAUUACGACGA | -2.94 ± 0.25 | -2.34 ± 0.3
